Experimental data from PMC4446437 (Nucleic Acids Research, 2015).

Biological target: T1, His-tagged Set7 (human, UniProt Q8WTS6 1-366)
T1 sequence (looked up): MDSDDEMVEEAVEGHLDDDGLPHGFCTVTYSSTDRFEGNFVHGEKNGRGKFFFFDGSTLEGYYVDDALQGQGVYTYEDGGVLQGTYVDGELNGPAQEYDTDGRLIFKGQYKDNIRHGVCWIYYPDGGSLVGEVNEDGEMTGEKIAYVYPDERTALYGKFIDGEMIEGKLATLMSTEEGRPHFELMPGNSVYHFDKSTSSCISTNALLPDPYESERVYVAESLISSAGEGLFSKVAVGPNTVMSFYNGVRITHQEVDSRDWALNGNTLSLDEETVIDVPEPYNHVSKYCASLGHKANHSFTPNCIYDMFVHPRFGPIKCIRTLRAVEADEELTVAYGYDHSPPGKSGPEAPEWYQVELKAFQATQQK
Experiment: pull-down

B1: GST-HIF-1α-(amino acids 576–785) (domain or fragment, human, UniProt Q16665 576-785, looked up)
chain: SFDQLSPLESSSASPESASPQSTVTVFQQTQIQEPTANATTTTATTDELKTVTKDRMEDIKILIASPSPTHIHKETTSATSSPYRDTQSRTASPNRAGKGVIEQTEKSHPRSPNVLSVALSQRTTVPEEELNPKILALQNAQRKRKMEHDGSLFQAVGIGTLLQQPDDHAATTSLSWKRVKGCKSSEQNGMEQKTIILIPSDLACRLLGQ
B1: binds.
